B1: FCHO1 (parent)
chain: HLELTRKLQDLIKDVLRYGEEQLK
B2: ZNF232 (parent)
chain: HSGEKPFICKECGKAYGWCSELIR

Variants of: B1
Assay: protein stability index of a GFP-peptide fusion (GPS, HEK-293T) (PSI 1-6); higher = more stable
Settings: c terminus: a fixed tail appended
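Note: lentivirally expressed fusions sorted by FACS into six bins by GFP to DsRed ratio, PSI derived from sequencing read proportions per bin multiplied by bin number.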

First: WLELTRKLQDLIKDVLRYGEEQLK [H1W]
Second: QLELTRKLQDLIKDVLRYGEEQLK [H1Q]
The protein stability index of the first is lower: 1.9 for the first, 2.8 for the second.

First: ILELTRKLQDLIKDVLRYGEEQLK [H1I]
Second: LLELTRKLQDLIKDVLRYGEEQLK [H1L]
The protein stability index of the first is higher: 1.74 for the first, 1.55 for the second.

Going from KLELTRKLQDLIKDVLRYGEEQLK [H1K] to GLELTRKLQDLIKDVLRYGEEQLK [H1G], the protein stability index rises from 1.46 to 2.03.

First: FLELTRKLQDLIKDVLRYGEEQLK [H1F]
Second: RLELTRKLQDLIKDVLRYGEEQLK [H1R]
The protein stability index of the first is lower: 1.99 for the first, 5.3 for the second.

Going from YLELTRKLQDLIKDVLRYGEEQLK [H1Y] to NLELTRKLQDLIKDVLRYGEEQLK [H1N], the protein stability index rises from 2.02 to 3.04.

First: ELELTRKLQDLIKDVLRYGEEQLK [H1E]
Second: PLELTRKLQDLIKDVLRYGEEQLK [H1P]
The protein stability index of the first is higher: 2.81 for the first, 1.79 for the second.

First: VLELTRKLQDLIKDVLRYGEEQLK [H1V]
Second: SLELTRKLQDLIKDVLRYGEEQLK [H1S]
The protein stability index of the first is lower: 1.31 for the first, 2.96 for the second.

Going from DLELTRKLQDLIKDVLRYGEEQLK [H1D] to TLELTRKLQDLIKDVLRYGEEQLK [H1T], the protein stability index falls from 2.68 to 2.28.

Compared with MLELTRKLQDLIKDVLRYGEEQLK [H1M], HLEHTRKLQDLIKDVLRYGEEQLK [L4H] is higher in protein stability index: 2.23 for the first, 3.01 for the second.

Compared with HLEETRKLQDLIKDVLRYGEEQLK [L4E], HLEITRKLQDLIKDVLRYGEEQLK [L4I] is higher in protein stability index: 1.46 for the first, 2.12 for the second.

Compared with HLECTRKLQDLIKDVLRYGEEQLK [L4C], HLEFTRKLQDLIKDVLRYGEEQLK [L4F] is lower in protein stability index: 4.01 for the first, 3.76 for the second.

Going from HLEDTRKLQDLIKDVLRYGEEQLK [L4D] to HLEGTRKLQDLIKDVLRYGEEQLK [L4G], the protein stability index rises from 2.01 to 2.02.

Going from HLDLTRKLQDLIKDVLRYGEEQLK [E3D] to HLQLTRKLQDLIKDVLRYGEEQLK [E3Q], the protein stability index rises from 2.84 to 3.73.

Going from HLKLTRKLQDLIKDVLRYGEEQLK [E3K] to HLCLTRKLQDLIKDVLRYGEEQLK [E3C], the protein stability index rises from 2.17 to 2.31.

Going from HLMLTRKLQDLIKDVLRYGEEQLK [E3M] to HLRLTRKLQDLIKDVLRYGEEQLK [E3R], the protein stability index falls from 3.36 to 2.74.

Compared with HLLLTRKLQDLIKDVLRYGEEQLK [E3L], HLNLTRKLQDLIKDVLRYGEEQLK [E3N] is higher in protein stability index: 2.7 for the first, 3.5 for the second.

Compared with HLPLTRKLQDLIKDVLRYGEEQLK [E3P], HLALTRKLQDLIKDVLRYGEEQLK [E3A] is higher in protein stability index: 2.72 for the first, 2.96 for the second.

Going from HLTLTRKLQDLIKDVLRYGEEQLK [E3T] to HLWLTRKLQDLIKDVLRYGEEQLK [E3W], the protein stability index falls from 3.33 to 2.83.

Going from HLVLTRKLQDLIKDVLRYGEEQLK [E3V] to HLSLTRKLQDLIKDVLRYGEEQLK [E3S], the protein stability index rises from 2.56 to 3.71.

Compared with HLYLTRKLQDLIKDVLRYGEEQLK [E3Y], HLFLTRKLQDLIKDVLRYGEEQLK [E3F] is higher in protein stability index: 2.52 for the first, 2.54 for the second.

First: HLILTRKLQDLIKDVLRYGEEQLK [E3I]
Second: HLHLTRKLQDLIKDVLRYGEEQLK [E3H]
The protein stability index of the first is lower: 2.88 for the first, 3.08 for the second.

First: HAELTRKLQDLIKDVLRYGEEQLK [L2A]
Second: HIELTRKLQDLIKDVLRYGEEQLK [L2I]
The protein stability index of the first is higher: 2.42 for the first, 1.87 for the second.

First: HFELTRKLQDLIKDVLRYGEEQLK [L2F]
Second: HMELTRKLQDLIKDVLRYGEEQLK [L2M]
The protein stability index of the first is lower: 1.95 for the first, 5.22 for the second.

Compared with HYELTRKLQDLIKDVLRYGEEQLK [L2Y], HDELTRKLQDLIKDVLRYGEEQLK [L2D] is higher in protein stability index: 2.04 for the first, 2.92 for the second.

Going from HCELTRKLQDLIKDVLRYGEEQLK [L2C] to HVELTRKLQDLIKDVLRYGEEQLK [L2V], the protein stability index falls from 3.33 to 3.29.

First: HRELTRKLQDLIKDVLRYGEEQLK [L2R]
Second: HNELTRKLQDLIKDVLRYGEEQLK [L2N]
The protein stability index of the first is lower: 2.11 for the first, 2.76 for the second.

Compared with HKELTRKLQDLIKDVLRYGEEQLK [L2K], HHELTRKLQDLIKDVLRYGEEQLK [L2H] is lower in protein stability index: 2.13 for the first, 1.64 for the second.

First: HWELTRKLQDLIKDVLRYGEEQLK [L2W]
Second: HEELTRKLQDLIKDVLRYGEEQLK [L2E]
The protein stability index of the first is lower: 1.41 for the first, 2.63 for the second.

First: HGELTRKLQDLIKDVLRYGEEQLK [L2G]
Second: HTELTRKLQDLIKDVLRYGEEQLK [L2T]
The protein stability index of the first is higher: 3.28 for the first, 2.88 for the second.

With HQELTRKLQDLIKDVLRYGEEQLK [L2Q] the protein stability index was 2.94.

Variants of: B2
Assay: as above
Settings: c terminus: a fixed tail appended

Compared with HSGEKPFICKECGKAYGWCSELIY [R24Y], HSGEKPFICKECGKAYGWCSELIQ [R24Q] is higher in protein stability index: 1.61 for the first, 2.44 for the second.

First: HSGEKPFICKECGKAYGWCSELIH [R24H]
Second: HSGEKPFICKECGKAYGWCSELIL [R24L]
The protein stability index of the first is higher: 3.51 for the first, 1.71 for the second.

Going from HSGEKPFICKECGKAYGWCSELID [R24D] to HSGEKPFICKECGKAYGWCSELIF [R24F], the protein stability index falls from 2.85 to 2.23.

Compared with HSGEKPFICKECGKAYGWCSELIW [R24W], HSGEKPFICKECGKAYGWCSELIG [R24G] is lower in protein stability index: 2.09 for the first, 1.45 for the second.

Going from HSGEKPFICKECGKAYGWCSELIP [R24P] to HSGEKPFICKECGKAYGWCSELIV [R24V], the protein stability index falls from 2.66 to 2.02.

First: HSGEKPFICKECGKAYGWCSELIT [R24T]
Second: HSGEKPFICKECGKAYGWCSELIS [R24S]
The protein stability index of the first is higher: 2.32 for the first, 2.23 for the second.

Going from HSGEKPFICKECGKAYGWCSELIC [R24C] to HSGEKPFICKECGKAYGWCSELIA [R24A], the protein stability index falls from 4.05 to 1.86.

Compared with HSGEKPFICKECGKAYGWCSELIE [R24E], HSGEKPFICKECGKAYGWCSELIM [R24M] is lower in protein stability index: 2.33 for the first, 1.74 for the second.

Compared with HSGEKPFICKECGKAYGWCSELIK [R24K], HSGEKPFICKECGKAYGWCSELIN [R24N] is lower in protein stability index: 2.08 for the first, 2.03 for the second.

Compared with HSGEKPFICKECGKAYGWCSELII [R24I], HSGEKPFICKECGKAYGWCSELFR [I23F] is lower in protein stability index: 1.99 for the first, 1.98 for the second.

Compared with HSGEKPFICKECGKAYGWCSELQR [I23Q], HSGEKPFICKECGKAYGWCSELER [I23E] is lower in protein stability index: 2.58 for the first, 2.24 for the second.

First: HSGEKPFICKECGKAYGWCSELHR [I23H]
Second: HSGEKPFICKECGKAYGWCSELNR [I23N]
The protein stability index of the first is higher: 2.71 for the first, 1.97 for the second.

Going from HSGEKPFICKECGKAYGWCSELGR [I23G] to HSGEKPFICKECGKAYGWCSELSR [I23S], the protein stability index falls from 2.09 to 1.78.

Compared with HSGEKPFICKECGKAYGWCSELYR [I23Y], HSGEKPFICKECGKAYGWCSELWR [I23W] is higher in protein stability index: 1.82 for the first, 2.3 for the second.

Compared with HSGEKPFICKECGKAYGWCSELRR [I23R], HSGEKPFICKECGKAYGWCSELMR [I23M] is lower in protein stability index: 2 for the first, 1.97 for the second.

First: HSGEKPFICKECGKAYGWCSELKR [I23K]
Second: HSGEKPFICKECGKAYGWCSELVR [I23V]
The protein stability index of the first is higher: 2.45 for the first, 1.97 for the second.

First: HSGEKPFICKECGKAYGWCSELTR [I23T]
Second: HSGEKPFICKECGKAYGWCSELLR [I23L]
The protein stability index of the first is lower: 1.89 for the first, 2.31 for the second.

HSGEKPFICKECGKAYGWCSELPR [I23P] showed a protein stability index of 2.28.

— the supplement of paper PMC10567573
